This is an account of results in patent publication WO2009024653A1 (dated 2009).

The target in assay [1] is T1, RHD5, human monoclonal IgG1 antibody directed against the C1 domain of factor VIII (LMBP 6165CB).
T1 construct: Human IgG1; also called anticorps RHD5; anti-C1 antibody
Kind of assay: SPR (Biacore), RHD5 immobilised on a CM5 chip, 18B6 injected.

Assay [2] has as its target T1, RHD5, human monoclonal IgG1 antibody …. Description: competition ELISA, coated recFVIII, RHD5 at 2 ug/ml pre-incubated with 18B6.
The target is the same in assay [3]. Kind of assay: cell-based or functional assay.

T1 sequence (VH, as listed by the source, chain 1 of 2): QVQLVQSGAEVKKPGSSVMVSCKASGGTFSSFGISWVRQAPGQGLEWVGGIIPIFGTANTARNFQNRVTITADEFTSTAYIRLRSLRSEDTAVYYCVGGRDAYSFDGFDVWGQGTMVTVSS
T1 sequence (VL, as listed by the source, chain 2 of 2): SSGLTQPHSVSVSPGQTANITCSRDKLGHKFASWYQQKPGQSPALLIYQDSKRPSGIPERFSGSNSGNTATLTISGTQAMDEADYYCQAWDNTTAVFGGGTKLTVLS

B1: anti-idiotypic monoclonal antibody 18B6 (produced by hybridoma 18B6, CNCM I-3559) (antibody, mouse IgG1, V domains shown)
VH: QVQLQQSGAELAKPGASVKMSCKASGYTFTTYWMHWIKQRPGQDLEWIGYINPTSGYTEYNQNFKDKATLTADKSSSTAYMQLNSLTSEDSAVYFCARSGAYYRYDDAMDSWGQGTSVTVSS
VL: QIVLSQSPAILSASPGEKVTMTCRASSSVSYMNWYQQKPGSSPKPWIYATSNLASGVPARFSGSGSGTSYSLTISRVEAEDAATYYCQQWSSNPPMLTFGAGTKLELK
notes: also called anticorps anti-idiotypique 18B6; clone 18B6 anti-RHD5
In assay [1], B1 registered a dissociation rate constant (koff) of 1.45e-05 s⁻¹ and an on-rate constant (kon) of 4260 M⁻¹ s⁻¹. Moreover, in assay [2], the “RHD5/18B6 molar ratio at 50% inhibition of RHD5 binding to FVIII” value stood at 2.5 molar ratio RHD5/18B6 and the “percent inhibition of RHD5 binding to FVIII at an equimolar ratio” value was 92%. For the same molecule, the “neutralisation of the inhibitory (anti-FVIII) activity of RHD5, chromogenic factor VIII test (DADE), RHD5 0.4 ug/ml, FVIII Kogenate 0.5 U/ml” value in assay [3] is 50 % neutralisation at an equimolar RHD5/18B6 ratio.
